Data taken from the Immune Epitope Database (IEDB).
Values belong to the sequence of their own block, whether it stands above or below them.

How the values were obtained:
HLA-B*14:02 = assay: IEDB peptide-MHC binding, purified MHC/direct/fluorescence; filed as Kd, often an IC50 or EC50 that approximates it; ≥ and ≤ were set here for values at or beyond the usual limits of such assays; conditions: source organism: Homo sapiens
HLA-C*06:02 = assay: as above; conditions: source organism: Entamoeba histolytica HM-1:IMSS
HLA-C*07:02 = assay: as above; conditions: source organism: Entamoeba histolytica HM-1:IMSS
HLA-C*05:01 = assay: as above
HLA-C*08:02 = assay: as above
HLA-A*02:01 [1] = assay: IEDB peptide-MHC binding, cellular MHC/competitive/fluorescence; ≥ and ≤ were set here for values at or beyond the usual limits of such assays
HLA-B*27:05 = assay: IEDB peptide-MHC binding, purified MHC/direct/fluorescence; filed as Kd, often an IC50 or EC50 that approximates it; ≥ and ≤ were set here for values at or beyond the usual limits of such assays
HLA-A*31:01 = assay: as above
HLA-A*11:01 = assay: as above
HLA-B*48:01 = assay: as above; conditions: source organism: Mycobacterium tuberculosis
HLA-B*40:01 = assay: as above
HLA-B*58:01 = assay: as above
HLA-A*02:01 [2] = assay: as above
HLA-B*07:02 = assay: as above
HLA-A*02:06 = assay: IEDB peptide-MHC binding, purified MHC/competitive/fluorescence; filed as Kd, often an IC50 or EC50 that approximates it; ≥ and ≤ were set here for values at or beyond the usual limits of such assays
HLA-A*26:03 = assay: as above; conditions: source organism: Mycobacterium tuberculosis variant bovis BCG str. Pasteur 1173P2
HLA-B*15:17 = assay: as above; conditions: source organism: Mycobacterium tuberculosis variant bovis BCG str. Pasteur 1173P2
HLA-A*01:01 [3] = assay: as above; conditions: source organism: Mycobacterium tuberculosis variant bovis BCG str. Pasteur 1173P2
HLA-A*69:01 [4] = assay: as above
HLA-A*68:02 = assay: as above; conditions: source organism: Mycobacterium tuberculosis variant bovis BCG str. Pasteur 1173P2
HLA-A*26:02 [5] = assay: as above; conditions: source organism: Mycobacterium tuberculosis variant bovis BCG str. Pasteur 1173P2
HLA-A*26:01 [6] = assay: as above; conditions: source organism: Mycobacterium tuberculosis variant bovis BCG str. Pasteur 1173P2
HLA-A*02:11 = assay: as above; conditions: source organism: human gammaherpesvirus 4
HLA-A*02:01 [7] = assay: as above; conditions: source organism: human gammaherpesvirus 4
HLA-A*02:03 = assay: as above; conditions: source organism: human gammaherpesvirus 4
HLA-A*02:19 = assay: as above; conditions: source organism: human gammaherpesvirus 4
HLA-A*02:12 = assay: as above; conditions: source organism: human gammaherpesvirus 4
HLA-A*02:16 = assay: as above; conditions: source organism: human gammaherpesvirus 4
HLA-A*01:01 [8] = assay: IEDB peptide-MHC binding, purified MHC/direct/fluorescence; filed as Kd, often an IC50 or EC50 that approximates it; ≥ and ≤ were set here for values at or beyond the usual limits of such assays
HLA-A*69:01 [9] = assay: as above
HLA-B*46:01 = assay: as above; conditions: source organism: Mycobacterium tuberculosis
HLA-B*57:01 = assay: as above; conditions: source organism: Mycobacterium tuberculosis
HLA-B*35:01 [10] = assay: IEDB peptide-MHC binding, purified MHC/competitive/fluorescence; filed as Kd, often an IC50 or EC50 that approximates it; ≥ and ≤ were set here for values at or beyond the usual limits of such assays; conditions: source organism: Mycobacterium tuberculosis variant bovis BCG str. Pasteur 1173P2
HLA-B*15:01 [11] = assay: as above; conditions: source organism: Mycobacterium tuberculosis variant bovis BCG str. Pasteur 1173P2
HLA-B*18:01 = assay: as above; conditions: source organism: Mycobacterium tuberculosis variant bovis BCG str. Pasteur 1173P2
HLA-A*26:02 [12] = assay: IEDB peptide-MHC binding, purified MHC/direct/fluorescence; filed as Kd, often an IC50 or EC50 that approximates it; ≥ and ≤ were set here for values at or beyond the usual limits of such assays; conditions: source organism: West Nile virus strain PTRoxo
HLA-A*32:07 = assay: IEDB peptide-MHC binding, purified MHC/competitive/fluorescence; filed as Kd, often an IC50 or EC50 that approximates it; ≥ and ≤ were set here for values at or beyond the usual limits of such assays; conditions: source organism: West Nile virus
HLA-B*45:06 = assay: as above; conditions: source organism: West Nile virus
HLA-A*32:15 = assay: as above; conditions: source organism: West Nile virus
HLA-B*15:42 = assay: as above; conditions: source organism: West Nile virus
HLA-B*83:01 = assay: as above; conditions: source organism: West Nile virus
HLA-B*35:01 [13] = assay: IEDB peptide-MHC binding, purified MHC/direct/fluorescence; filed as Kd, often an IC50 or EC50 that approximates it; ≥ and ≤ were set here for values at or beyond the usual limits of such assays; conditions: source organism: Burkholderia mallei
HLA-B*15:01 [14] = assay: as above; conditions: source organism: Burkholderia mallei
HLA-B*08:01 = assay: as above; conditions: source organism: Burkholderia mallei
HLA-A*24:03 = assay: as above; conditions: source organism: Burkholderia mallei
HLA-A*26:01 [15] = assay: as above; conditions: source organism: Burkholderia mallei
HLA-A*03:01 = assay: as above; conditions: source organism: Burkholderia mallei
[16] = source organism: Entamoeba histolytica HM-1:IMSS
[17] = source organism: Mycobacterium tuberculosis
[18] = source organism: Mycobacterium tuberculosis variant bovis BCG str. Pasteur 1173P2
[19] = source organism: human gammaherpesvirus 4
[20] = source organism: Burkholderia mallei
[21] = source organism: Burkholderia pseudomallei 91

Kd (HLA-B*14:02): 0.0896 µM
Sequence: VSPLHRVL

Sequence: FAMRLLQAV
Kd (HLA-C*06:02): 0.844 µM
Kd (HLA-C*07:02): 2.89 µM
Kd (HLA-C*05:01; [16]): 3.17 µM
Kd (HLA-C*08:02; [16]): 0.017 µM

IC50 (HLA-A*02:01 [1]; source organism: Homo sapiens): 0.53 µM
Sequence: LLLDVPTAAV

Sequence: ATADLELAY
Kd (HLA-B*27:05; [17]): ≥ 20 µM
Kd (HLA-A*31:01; [17]): ≥ 20 µM
Kd (HLA-A*11:01; [17]): 0.0105 µM
Kd (HLA-B*48:01): ≥ 20 µM
Kd (HLA-B*40:01; [17]): ≥ 20 µM
Kd (HLA-B*58:01; [17]): 0.0098 µM
Kd (HLA-A*02:01 [2]; [17]): 0.818 µM
Kd (HLA-B*07:02; [17]): ≥ 20 µM
Kd (HLA-A*02:06; [18]): 2.5 µM
Kd (HLA-A*26:03): ≥ 20 µM
Kd (HLA-B*15:17): 0.0111 µM
Kd (HLA-A*01:01 [3]): 0.0227 µM
Kd (HLA-A*69:01 [4]; [18]): ≥ 20 µM
Kd (HLA-A*68:02): ≥ 20 µM
Kd (HLA-A*26:02 [5]): 0.13 µM
Kd (HLA-A*26:01 [6]): 0.428 µM

Sequence: CLGGLLTMV
Kd (HLA-A*02:06; [19]): ≤ 0.0001 µM
Kd (HLA-A*02:11): ≤ 0.0001 µM
Kd (HLA-A*02:01 [7]): 0.023 µM
Kd (HLA-A*69:01 [4]; [19]): 3.17 µM
Kd (HLA-A*02:03): 0.00067 µM
Kd (HLA-A*02:19): 0.0075 µM
Kd (HLA-A*02:12): ≤ 0.001 µM
Kd (HLA-A*02:16): ≤ 0.0001 µM
IC50 (HLA-A*02:01 [1]; [19]): 2.5 µM

IC50 (HLA-A*02:01 [1]; source organism: Homo sapiens): 1.11 µM
Sequence: KMDASLGNLFA

Sequence: AVFLSYIGY
Kd (HLA-B*27:05; [17]): ≥ 20 µM
Kd (HLA-A*31:01; [17]): ≥ 20 µM
Kd (HLA-A*11:01; [17]): 1.56 µM
Kd (HLA-B*48:01): ≥ 20 µM
Kd (HLA-B*40:01; [17]): ≥ 20 µM
Kd (HLA-B*58:01; [17]): 17 µM
Kd (HLA-A*01:01 [8]; [17]): ≥ 20 µM
Kd (HLA-A*02:01 [2]; [17]): ≥ 20 µM
Kd (HLA-A*69:01 [9]; [17]): ≥ 20 µM
Kd (HLA-B*46:01): ≥ 20 µM
Kd (HLA-B*07:02; [17]): ≥ 20 µM
Kd (HLA-B*57:01): ≥ 20 µM
Kd (HLA-A*26:03): ≥ 20 µM
Kd (HLA-B*35:01 [10]): 3.95 µM
Kd (HLA-B*15:01 [11]): 1.84 µM
Kd (HLA-B*15:17): 0.315 µM
Kd (HLA-A*68:02): 3.04 µM
Kd (HLA-A*26:01 [6]): ≥ 20 µM
Kd (HLA-B*18:01): ≥ 20 µM

Kd (HLA-B*14:02): 0.13 µM
Sequence: NQIIHRDL

Sequence: ETTNWLWAF
Kd (HLA-A*26:02 [12]): ≤ 0.001 µM
Kd (HLA-A*32:07): 0.0263 µM
Kd (HLA-B*45:06): ≥ 5 µM
Kd (HLA-A*32:15): 0.0251 µM
Kd (HLA-B*15:42): ≥ 5 µM
Kd (HLA-B*83:01): ≥ 5 µM

Sequence: ISDSAQNMM
Kd (HLA-B*27:05; [20]): ≥ 20 µM
Kd (HLA-A*31:01; [20]): ≥ 20 µM
Kd (HLA-B*35:01 [13]): 0.0402 µM
Kd (HLA-B*15:01 [14]): ≥ 20 µM
Kd (HLA-A*11:01; [20]): ≥ 20 µM
Kd (HLA-B*40:01; [20]): ≥ 20 µM
Kd (HLA-B*08:01): ≥ 20 µM
Kd (HLA-B*58:01; [20]): 0.151 µM
Kd (HLA-A*01:01 [8]; [20]): 1.04 µM
Kd (HLA-A*02:01 [2]; [20]): ≥ 20 µM
Kd (HLA-A*69:01 [9]; [20]): ≥ 20 µM
Kd (HLA-A*24:03): ≥ 20 µM
Kd (HLA-C*05:01; [21]): 0.003 µM
Kd (HLA-C*08:02; [21]): ≤ 0.001 µM
Kd (HLA-A*26:01 [15]): ≥ 20 µM
Kd (HLA-B*07:02; [20]): ≥ 20 µM
Kd (HLA-A*03:01): ≥ 20 µM

Kd (HLA-B*14:02): 0.528 µM
Sequence: LQVAHEEI
